Test results published in patent US12559863B2, “Macrocyclic modulators of disease associated protein misfolding and aggregation” (RESQ BIOTECH, priority 2017, dated 2026).

biological target: T1, Aβ42-GFP (Homo sapiens, UniProt P05067); experiment: High-throughput sequencing of pSICLOPPS vectors isolated after bacterial sorting for enhanced Aβ42-GFP fluorescence; settings: after the second round of bacterial sorting for enhanced Aβ42-GFP fluorescence; relative to total TXXXR reads
T1 construct: a chimeric fusion of the human Aβ(1-42) peptide (Aβ42) with GFP; expressed in transfected cells; host or cells: E. coli BL21(DE3)
In short: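 Peptide inserts recovered from repeatedly sorted high-GFP clones were sequenced on Ion Torrent, excluding stop-codon-containing reads. Sorting used BL21(DE3) cells carrying pETAβ42-GFP plus the tetra-, penta- and hexapeptide pSICLOPPS library. Peptide production was induced with 0.002% L-arabinose and the reporter with 0.1 mM IPTG at OD600 ~0.5, at 37° C.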

Substance	Reads/Total TXXXR reads (%)
AβC5-385 (TTLYR; head-to-tail cyclic)	0.005
AβC5-389 (THLDR; head-to-tail cyclic)	0.005
AβC5-391 (TLLIR; head-to-tail cyclic)	0.005
AβC5-392 (TTCDR; head-to-tail cyclic)	0.005
AβC5-393 (TTGRR; head-to-tail cyclic)	0.005
AβC5-394 (TTVSR; head-to-tail cyclic)	0.005
AβC5-395 (TTQHR; head-to-tail cyclic)	0.004
AβC5-396 (TTTPR; head-to-tail cyclic)	0.004
AβC5-399 (TAFAR; head-to-tail cyclic)	0.004
AβC5-405 (TTSHR; head-to-tail cyclic)	0.004
AβC5-410 (TVLGR; cyclic pentapeptide)	0.004
AβC5-411 (TTQRR; cyclic pentapeptide)	0.004
AβC5-413 (TSHAR; cyclic pentapeptide)	0.004
AβC5-415 (TTTCR; cyclic pentapeptide)	0.004
AβC5-422 (TAWRR; cyclic pentapeptide)	0.004
AβC5-428 (TTCGR; cyclic pentapeptide)	0.004
AβC5-434 (TTSGR; cyclic pentapeptide)	0.003
AβC5-438 (TTTSR; cyclic pentapeptide)	0.003
AβC5-440 (TATGR; cyclic pentapeptide)	0.003
AβC5-441 (TAWDR; cyclic pentapeptide)	0.003
AβC5-443 (TTHHR; cyclic pentapeptide)	0.003
AβC5-448 (TAYAR; cyclic pentapeptide)	0.003
AβC5-449 (TANAR; cyclic pentapeptide)	0.003
AβC5-450 (TRDVR; cyclic pentapeptide)	0.003
AβC5-452 (THVDR; cyclic pentapeptide)	0.003
AβC5-453 (TLFWR; cyclic pentapeptide)	0.003
AβC5-459 (TTAAR; cyclic pentapeptide)	0.003
AβC5-463 (TVVDR; cyclic pentapeptide)	0.003
AβC5-464 (TTPAR; cyclic pentapeptide)	0.003

same assay, conditions: after the second round of bacterial sorting for enhanced Aβ42-GFP fluorescence; relative to total pentapeptide reads

Substance	Reads/Total pentapeptide reads (%)
AβC5-385 (TTLYR; head-to-tail cyclic)	0.002
AβC5-389 (THLDR; head-to-tail cyclic)	0.002
AβC5-391 (TLLIR; head-to-tail cyclic)	0.002
AβC5-392 (TTCDR; head-to-tail cyclic)	0.002
AβC5-393 (TTGRR; head-to-tail cyclic)	0.002
AβC5-394 (TTVSR; head-to-tail cyclic)	0.002
AβC5-395 (TTQHR; head-to-tail cyclic)	0.002
AβC5-396 (TTTPR; head-to-tail cyclic)	0.002
AβC5-399 (TAFAR; head-to-tail cyclic)	0.002
AβC5-405 (TTSHR; head-to-tail cyclic)	0.002
AβC5-410 (TVLGR; cyclic pentapeptide)	0.002
AβC5-411 (TTQRR; cyclic pentapeptide)	0.002
AβC5-413 (TSHAR; cyclic pentapeptide)	0.002
AβC5-415 (TTTCR; cyclic pentapeptide)	0.002
AβC5-422 (TAWRR; cyclic pentapeptide)	0.002
AβC5-428 (TTCGR; cyclic pentapeptide)	0.002
AβC5-434 (TTSGR; cyclic pentapeptide)	0.002
AβC5-438 (TTTSR; cyclic pentapeptide)	0.002
AβC5-440 (TATGR; cyclic pentapeptide)	0.002
AβC5-441 (TAWDR; cyclic pentapeptide)	0.002
AβC5-443 (TTHHR; cyclic pentapeptide)	0.001
AβC5-448 (TAYAR; cyclic pentapeptide)	0.001
AβC5-449 (TANAR; cyclic pentapeptide)	0.001
AβC5-450 (TRDVR; cyclic pentapeptide)	0.001
AβC5-452 (THVDR; cyclic pentapeptide)	0.001
AβC5-453 (TLFWR; cyclic pentapeptide)	0.001
AβC5-459 (TTAAR; cyclic pentapeptide)	0.001
AβC5-463 (TVVDR; cyclic pentapeptide)	0.001
AβC5-464 (TTPAR; cyclic pentapeptide)	0.001

same assay, conditions: after the second round of bacterial sorting for enhanced Aβ42-GFP fluorescence; relative to total peptide reads

Substance	Reads/Total peptide reads (%)
AβC5-385 (TTLYR; head-to-tail cyclic)	0.002
AβC5-389 (THLDR; head-to-tail cyclic)	0.002
AβC5-391 (TLLIR; head-to-tail cyclic)	0.002
AβC5-392 (TTCDR; head-to-tail cyclic)	0.002
AβC5-393 (TTGRR; head-to-tail cyclic)	0.002
AβC5-394 (TTVSR; head-to-tail cyclic)	0.002
AβC5-395 (TTQHR; head-to-tail cyclic)	0.002
AβC5-396 (TTTPR; head-to-tail cyclic)	0.002
AβC5-399 (TAFAR; head-to-tail cyclic)	0.002
AβC5-405 (TTSHR; head-to-tail cyclic)	0.002
AβC5-410 (TVLGR; cyclic pentapeptide)	0.002
AβC5-411 (TTQRR; cyclic pentapeptide)	0.002
AβC5-413 (TSHAR; cyclic pentapeptide)	0.002
AβC5-415 (TTTCR; cyclic pentapeptide)	0.002
AβC5-422 (TAWRR; cyclic pentapeptide)	0.002
AβC5-428 (TTCGR; cyclic pentapeptide)	0.002
AβC5-434 (TTSGR; cyclic pentapeptide)	0.001
AβC5-438 (TTTSR; cyclic pentapeptide)	0.001
AβC5-440 (TATGR; cyclic pentapeptide)	0.001
AβC5-441 (TAWDR; cyclic pentapeptide)	0.001
AβC5-443 (TTHHR; cyclic pentapeptide)	0.001
AβC5-448 (TAYAR; cyclic pentapeptide)	0.001
AβC5-449 (TANAR; cyclic pentapeptide)	0.001
AβC5-450 (TRDVR; cyclic pentapeptide)	0.001
AβC5-452 (THVDR; cyclic pentapeptide)	0.001
AβC5-453 (TLFWR; cyclic pentapeptide)	0.001
AβC5-459 (TTAAR; cyclic pentapeptide)	0.001
AβC5-463 (TVVDR; cyclic pentapeptide)	0.001
AβC5-464 (TTPAR; cyclic pentapeptide)	0.001

same assay, conditions: after the second round of bacterial sorting; relative to total TXXXR reads

Substance	Reads/Total TXXXR reads (%)
AβC5-375 (TNLAR; head-to-tail cyclic)	0.005
AβC5-376 (TIRDR; head-to-tail cyclic)	0.005
AβC5-378 (TTTGR; head-to-tail cyclic)	0.005
AβC5-379 (TRLGR; head-to-tail cyclic)	0.005
AβC5-381 (TTHTR; head-to-tail cyclic)	0.005
AβC5-382 (TTITR; head-to-tail cyclic)	0.005
AβC5-384 (TTYTR; head-to-tail cyclic)	0.005

same assay, conditions: after the second round of bacterial sorting; relative to total pentapeptide reads

Substance	Reads/Total pentapeptide reads (%)
AβC5-375 (TNLAR; head-to-tail cyclic)	0.002
AβC5-376 (TIRDR; head-to-tail cyclic)	0.002
AβC5-378 (TTTGR; head-to-tail cyclic)	0.002
AβC5-379 (TRLGR; head-to-tail cyclic)	0.002
AβC5-381 (TTHTR; head-to-tail cyclic)	0.002
AβC5-382 (TTITR; head-to-tail cyclic)	0.002
AβC5-384 (TTYTR; head-to-tail cyclic)	0.002

same assay, conditions: after the second round of bacterial sorting; relative to total peptide reads

Substance	Reads/Total peptide reads (%)
AβC5-375 (TNLAR; head-to-tail cyclic)	0.002
AβC5-376 (TIRDR; head-to-tail cyclic)	0.002
AβC5-378 (TTTGR; head-to-tail cyclic)	0.002
AβC5-379 (TRLGR; head-to-tail cyclic)	0.002
AβC5-381 (TTHTR; head-to-tail cyclic)	0.002
AβC5-382 (TTITR; head-to-tail cyclic)	0.002
AβC5-384 (TTYTR; head-to-tail cyclic)	0.002

same assay, conditions: high-throughput sequencing of isolated pSICLOPPS-NuX1X2X3-X5 vectors after the second round of bacterial sorting for enhanced Aβ42-GFP fluorescence; selected cyclo-TXXXR pentapeptides

Substance	Number of reads
AβC5-375 (TNLAR; head-to-tail cyclic)	97
AβC5-376 (TIRDR; head-to-tail cyclic)	96
AβC5-378 (TTTGR; head-to-tail cyclic)	96
AβC5-379 (TRLGR; head-to-tail cyclic)	95
AβC5-381 (TTHTR; head-to-tail cyclic)	93
AβC5-382 (TTITR; head-to-tail cyclic)	92
AβC5-384 (TTYTR; head-to-tail cyclic)	90

same assay, conditions: pSICLOPPS-NuX1X2X3-X5 vectors after the second round of bacterial sorting for enhanced Aβ42-GFP fluorescence

Substance	Number of reads
AβC5-385 (TTLYR; head-to-tail cyclic)	90
AβC5-389 (THLDR; head-to-tail cyclic)	89
AβC5-391 (TLLIR; head-to-tail cyclic)	88
AβC5-392 (TTCDR; head-to-tail cyclic)	87
AβC5-393 (TTGRR; head-to-tail cyclic)	87
AβC5-394 (TTVSR; head-to-tail cyclic)	86
AβC5-395 (TTQHR; head-to-tail cyclic)	85
AβC5-396 (TTTPR; head-to-tail cyclic)	84
AβC5-399 (TAFAR; head-to-tail cyclic)	82
AβC5-405 (TTSHR; head-to-tail cyclic)	78
AβC5-410 (TVLGR; cyclic pentapeptide)	76
AβC5-411 (TTQRR; cyclic pentapeptide)	75
AβC5-413 (TSHAR; cyclic pentapeptide)	74
AβC5-415 (TTTCR; cyclic pentapeptide)	74
AβC5-422 (TAWRR; cyclic pentapeptide)	72
AβC5-428 (TTCGR; cyclic pentapeptide)	69
AβC5-434 (TTSGR; cyclic pentapeptide)	65
AβC5-438 (TTTSR; cyclic pentapeptide)	62
AβC5-440 (TATGR; cyclic pentapeptide)	61
AβC5-441 (TAWDR; cyclic pentapeptide)	61
AβC5-443 (TTHHR; cyclic pentapeptide)	60
AβC5-448 (TAYAR; cyclic pentapeptide)	58
AβC5-449 (TANAR; cyclic pentapeptide)	58
AβC5-450 (TRDVR; cyclic pentapeptide)	58
AβC5-452 (THVDR; cyclic pentapeptide)	58
AβC5-453 (TLFWR; cyclic pentapeptide)	57
AβC5-459 (TTAAR; cyclic pentapeptide)	55
AβC5-463 (TVVDR; cyclic pentapeptide)	54
AβC5-464 (TTPAR; cyclic pentapeptide)	54
